Data on three sequences can be found in patent US6124449.

For orientation: Ki means the dissociation constant of the complex between target and ligand, obtained from inhibition or displacement. Read a high Ki as weaker binding. For orientation: Kd means the constant that tells how readily two partners part at equilibrium.

For data set [1], the target named is TGF-beta1 (hTGF-beta1) (Homo sapiens) (UniProt P01137). Kind of data set: cell_activity. Conditions: 2'-F C and U; MLEC assay; sequence contains N; column inferred.
The target is the same in data set [2]. Kind of data set: filter.

TGF-beta1 (hTGF-beta1) (Homo sapiens), sequence (P01137 279-390): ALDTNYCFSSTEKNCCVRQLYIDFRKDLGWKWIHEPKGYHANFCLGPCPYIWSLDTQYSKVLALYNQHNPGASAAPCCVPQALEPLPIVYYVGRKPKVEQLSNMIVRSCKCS

In data set [1], “GGGAGGACGAUGCGGGACCNUUGUNUGCGAUUCAACUCGUAGGUCUUCUCACGUGCAGACGACUCGCCCGA [40-75]” yielded an inhibition constant Ki of 2.25 nM.

Sequence “GGGAGGACGAUGCGGNNNNNNNNNNNNNNNNNNNNNNNNNNNNNNNNNNNNNNNNCAGACGACUCGCCCGA [random 40N7 RNA pool]” displayed a Kd in data set [2] (2'-F C and U (RNA transcript of template), random 2'-F RNA, DPBS, 1 mM MgCl2, 37 C) of 10 nM.

The sequence “GGGAGGACGAUGCGGUUAACCNUAAAUACGGCUUGANUUCUUCCGCAGACGACUCGCCCGA [30-19]” yielded a Kd in data set [2] (2'-F C and U, biphasic, Kd1 5.7±1.9 nM) of 0.346 nM.
